Source: patent US20250215091A1, “Anti-GAL3 Antibodies and Compositions” (Les Laboratoires Servier, priority 2022, published 2025)
Changes are numbered by the printed parent chain.

T1: Gal3 CRD domain from dog (dog, UniProt P38486 152-296, limits assumed)
T1 construct: domain: CRD domain; also called dog Gal3-CRD
T1 sequence (looked up): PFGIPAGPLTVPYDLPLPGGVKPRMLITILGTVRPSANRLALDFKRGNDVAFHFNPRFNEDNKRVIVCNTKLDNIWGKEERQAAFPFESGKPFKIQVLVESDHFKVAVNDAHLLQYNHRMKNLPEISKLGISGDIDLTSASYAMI

T2: Gal3 CRD domain from rat (rat, UniProt P08699 118-262, limits assumed)
T2 construct: domain: CRD domain; also called rat Gal3-CRD
T2 sequence (looked up): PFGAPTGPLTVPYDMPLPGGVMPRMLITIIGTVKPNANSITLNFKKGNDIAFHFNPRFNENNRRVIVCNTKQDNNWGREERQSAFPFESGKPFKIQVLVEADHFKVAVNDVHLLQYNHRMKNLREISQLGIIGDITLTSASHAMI

B1: anti-Gal3 antibody D06 (antibody, V domains shown)
VH: EVQLVESGGSLVKPGGSLRLSCAASGFTFSNYNMNWVRQAPGKGLEWISSIYGSSRYIYYADFVKGRFTISRDNAKNSLYLQMNSLRAEDTAVYYCVRSGYGGMDVWGRGTLVTVSS
VL: QSVLTQPASVSGSPGQSITISCAGTSSDVGGYNGVSWYQQHPGKAPKLMIYYDSYRPSGVSNRFSGSKSGNTASLTISGLQAEDEADYYCSSGTDYSTRVFGGGTKLEIK
B2: anti-Gal3 antibody H10 (antibody, V domains shown)
VH: EVQLVESGGSLVKPGGSLRLSCAASGFTFSNYYMNWVRQAPGKGLEWISYINGASRDISYADFVKGRFTISRDNAKNSLYLQMNSLRAEDTAVYYCVRSSYGYSNYGSGMDVWGRGTLVTVSS
VL: B1 VL with Y32S, N33Y, G34N, S36A, Y52N, S54A, Y55N, G93N, D95A, Y96D
B3: anti-Gal3 antibody D11 (antibody, V domains shown)
VH: B1 VH with G100S
VL: B1 VL with Y32S, N33Y, G34N, S36A, G93Y, D95G
B4: anti-Gal3 antibody E07 (antibody, V domains shown)
VH: B1 VH with S50N, G100Y
VL: B1 VL with N33Y, G34S, Y55N, G93Y, D95G

biological target: T3, CRD domain of human Galectin-3 (human, UniProt P17931 106-250); assay: competitive ELISA, inhibition of ASF binding to immobilized Hu-Gal3-CRD
T3 construct: Histidine-tagged; also called hu-Gal3-CRD; Hu-Gal3-CRD
T3 sequence (P17931 106-250 limits assumed): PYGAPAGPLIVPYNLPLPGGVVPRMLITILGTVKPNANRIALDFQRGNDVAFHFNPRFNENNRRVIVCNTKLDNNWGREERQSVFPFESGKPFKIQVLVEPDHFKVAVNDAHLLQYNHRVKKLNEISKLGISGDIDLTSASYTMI
Protocol: The inhibitory properties and IC50 of the anti-Gal3 antibodies were determined in an ELISA competitive assay by measuring the binding of ASF to immobilized CRD domain of human Gal3 in absence or presence of the antibodies at different concentrations.
The inhibition assay was performed on Hu-Gal3-CRD which was immobilized at 1 μg/mL through its His-tag on functionalized microplates. A 2-fold or 3-fold serial dilution was carried-out with the purified IgGs and added to the wells with immobilized Hu-Gal3-CRD. ASF (A1908-Sigma reference) was added at 8 μg/mL in each well with or without IgGs. ASF binding to Hu-Gal3-CRD was detected with the HRP-labeled anti-ASF sheep antibody. IC50 were estimated according to the model equation Y=Bottom+(Top−Bottom)/(1+(X/IC50)). Indicative maximal percentages of inhibition were obtained with the formula: 100%−(((mean of bottom plateau values of IgGs)×100%)/mean of irrelevant IgG values)

IC50 [nM]	Max % inhibition [%]	Binder
5.1	82	B1
2.7	89	B2
2.2	99	B3
1.5	89	B4

biological target: T4, human full-length Galectin-7 (human, UniProt P47929 1-136); assay: ELISA on immobilised antigen (3 µg/mL), purified IgG at 15-20 µg/mL, anti-Fab.HRP, OD 450 nm
T4 construct: full-length; Histidine-tagged; also called Hu-Gal7; Gal7
T4 sequence (P47929 whole entry): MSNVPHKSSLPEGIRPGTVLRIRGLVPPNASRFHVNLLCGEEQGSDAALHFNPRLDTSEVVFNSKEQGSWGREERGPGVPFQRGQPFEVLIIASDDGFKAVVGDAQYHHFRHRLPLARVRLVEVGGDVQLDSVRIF
Protocol: (§1) IgG specificity to Gal3 was tested by checking the absence of binding on human Gall and Gal7 by ELISA.
(§2) Hu-Gall and Hu-Gal7 were immobilized at 3 μg/mL. Purified IgGs were added into the wells (15-20 μg/mL final concentration) and detected with an anti-Fab.HRP antibody. Rabbit antibodies directed against Gall (Abcam ab25138 reference) and Gal7 (Abcam ab108623 reference) were used at 5 μg/mL as antigen-coating positive controls and detected with an anti-rabbit.HRP secondary antibody (7074S-Cell Signaling reference).

binding result	Binder
no binding (tested: 15-20 µg/mL)	B1
no binding (tested: 15-20 µg/mL)	B2
no binding (tested: 15-20 µg/mL)	B3
no binding (tested: 15-20 µg/mL)	B4

biological target: T5, human full-length Galectin-1 (human, UniProt P09382 2-135); assay: as above
T5 construct: full-length; Histidine-tagged; also called Hu-Gall; Gall
T5 sequence (P09382 2-135 limits assumed): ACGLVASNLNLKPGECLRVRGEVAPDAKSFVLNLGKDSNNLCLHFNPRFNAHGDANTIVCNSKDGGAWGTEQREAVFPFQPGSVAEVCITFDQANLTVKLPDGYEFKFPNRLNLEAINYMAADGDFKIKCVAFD
Protocol: as §1, §2

binding result	Binder
no binding (tested: 15-20 µg/mL)	B1
no binding (tested: 15-20 µg/mL)	B2
no binding (tested: 15-20 µg/mL)	B3
no binding (tested: 15-20 µg/mL)	B4

biological target: T1, Gal3 CRD domain from dog; assay: SPR single-cycle kinetics, captured antibody, Gal3-CRD 0.5-50 nM
Protocol: (§3) The CM5 sensor surface was first immobilized with an anti-human Fc mAb using a standard protocol. The entire sensor surface was first activated by injecting a 1:1 (v/v) mixture of 400 mM EDC and 100 mM NHS at a flow rate of 10 μL/minute for 7 minutes. Monoclonal anti-human Fc antibody (Millipore AP113), 25 μg/mL in Na acetate pH5, 360 s were flowed at 10 μL/minute to reach 10000 RU on both flow cells followed by the injection of 1 M ethanolamine, pH8.5 for 7 minutes at a flow rate of 10 μL/minute. During the entire immobilization procedure, HBS-P was used as the running buffer.
(§4) Antibody samples were prepared at 5 μg/ml and were injected for 30 seconds at 10 μL/minute. In general, 400 to 680 resonance units of antibodies were captured on the chip.
(§5) Kd values were also determined by SPR using […] kinetics analysis. A total of 5 concentrations of Gal3 CRD domain from human, dog, rat and cynomolgus (Novalix) [0.5-50] nM were injected over the antibody capture surfaces for 210 seconds followed by a dissociation phase of 600 seconds at 30 μL/minute. At the end of each cycle, capture surfaces were regenerated by 2 injections of glycine pH 1.5, for 30 seconds at 10 μL/minute, followed by an extra wash with glycine pH 1.5. Fresh antibody was captured at the beginning of each cycle.

Kd [nM]	Binder
12	B1
24	B2
26	B3
23	B4

biological target: T6, Gal3 CRD domain from cynomolgus (cynomolgus, UniProt A0A7N9CYL1 103-247); assay: as above
T6 construct: domain: CRD domain; also called cynomolgus Gal3-CRD
Protocol: as §3, §4, §5

Kd [nM]	Binder
10	B1
5.6	B2
11	B3
7.4	B4

biological target: T2, Gal3 CRD domain from rat; assay: as above
Protocol: as §3, §4, §5

Kd [nM]	Binder
4.8	B1
12	B2
8.6	B3
15	B4

biological target: T3, CRD domain of human Galectin-3; assay: as above
Protocol: as §3, §4, §5

Kd [nM]	Binder
15	B1
8.2	B2
26	B3
14	B4

biological target: T7, full length mouse Galectin-3 (mouse, UniProt P16110 2-264); assay: dose-response ELISA on immobilized m-Gal3-FL, IgG
T7 construct: Printed as 'full length'; recombinant, immobilized through a histidine tag; also called m-Gal3-FL; murine Gal3
T7 sequence (P16110 2-264 limits assumed): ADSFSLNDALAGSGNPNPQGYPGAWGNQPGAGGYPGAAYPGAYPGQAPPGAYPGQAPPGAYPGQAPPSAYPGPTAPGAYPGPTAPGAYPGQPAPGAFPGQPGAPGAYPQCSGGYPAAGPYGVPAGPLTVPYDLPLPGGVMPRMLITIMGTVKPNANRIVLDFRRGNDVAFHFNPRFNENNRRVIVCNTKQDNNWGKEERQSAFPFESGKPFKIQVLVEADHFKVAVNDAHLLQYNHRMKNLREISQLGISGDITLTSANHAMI
Protocol: (§6) To determine the half maximal effective concentration (EC50) of the antibodies, ELISA dose-response experiments were performed on Hu-Gal3-FL and on m-Gal3-FL.
(§7) Hu-Gal3-FL and m-Gal3-FL were immobilized at 3 μg/mL through their His-tag on functionalized microplates as before. A 3.3-fold serial dilution was carried-out with the purified IgGs, added to the wells containing immobilized Hu-Gal3-FL or m-Gal3-FL and detected with an anti-Fab.HRP antibody.

EC50 [nM]	Binder
0.16	B1
5.9	B2
0.99	B3
0.3	B4

biological target: T7, full length mouse Galectin-3; assay: ratio of the ELISA EC50 values on Hu-Gal3-FL and m-Gal3-FL
Protocol: as §6, §7

Ratio (Human/mouse Gal3 EC50 ratio)	Binder
2	B1
30	B2
3	B3
4	B4

biological target: T8, full length human Galectin-3 (human, UniProt P17931 2-250); assay: dose-response ELISA on immobilized Hu-Gal3-FL, IgG
T8 construct: Printed as 'full length'; recombinant, immobilized through a histidine tag; also called hu-Gal3-FL; Hu-Gal3-FL
T8 sequence (P17931 2-250 limits assumed): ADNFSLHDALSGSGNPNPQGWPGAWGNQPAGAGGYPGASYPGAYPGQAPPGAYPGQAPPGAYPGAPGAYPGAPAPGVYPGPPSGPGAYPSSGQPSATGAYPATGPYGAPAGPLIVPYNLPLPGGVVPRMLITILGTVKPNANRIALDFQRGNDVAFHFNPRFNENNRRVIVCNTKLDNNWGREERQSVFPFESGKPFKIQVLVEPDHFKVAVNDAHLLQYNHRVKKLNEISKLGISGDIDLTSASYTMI
Protocol: as §6, §7

EC50 [nM]	Binder
0.26	B1
0.2	B2
0.37	B3
0.07	B4

biological target: T8, full length human Galectin-3; assay: SPR Biacore T-200, antibody captured by anti-human Fc, Gal3 in solution
Protocol: as §3, §4

Kd [nM]	Binder
13	B1
4.5	B2
15	B3
9	B4

biological target: T7, full length mouse Galectin-3; assay: as above
Protocol: as §3, §4

Kd [nM]	Binder
1.34	B1
2.72	B2
2.8	B3
4.14	B4
